Data: publication PMC10397247
Like-named read-outs stand apart in the source and are kept apart here.

T1: 4H2883-AA
T1 chain: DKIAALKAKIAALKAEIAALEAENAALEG

T2: 4H2944-AA
T2 chain: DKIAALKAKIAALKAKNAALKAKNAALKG

T3: 4H2949-AA
T3 chain: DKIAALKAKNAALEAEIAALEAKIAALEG

T4: 4H3112-AA
T4 chain: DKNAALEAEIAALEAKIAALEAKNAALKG

T5: 4H317-AA
T5 chain: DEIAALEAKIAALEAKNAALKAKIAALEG

T6: 4H3343-AA
T6 chain: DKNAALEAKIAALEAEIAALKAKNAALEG

T7: 4H342-AA
T7 chain: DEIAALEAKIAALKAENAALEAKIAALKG

T8: 4H3427-AA
T8 chain: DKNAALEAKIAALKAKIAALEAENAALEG

T9: 4H3606-AA
T9 chain: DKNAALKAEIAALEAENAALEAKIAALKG

T10: 4H3627-AA
T10 chain: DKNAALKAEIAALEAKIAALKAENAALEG

T11: 4H3655-AA
T11 chain: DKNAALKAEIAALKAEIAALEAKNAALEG

T12: 4H3844-AA
T12 chain: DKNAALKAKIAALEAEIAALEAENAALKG

T13: 4H429-AA
T13 chain: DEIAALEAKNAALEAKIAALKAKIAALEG

T14: 4H454-AA
T14 chain: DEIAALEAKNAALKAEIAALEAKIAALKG

T15: 4H48-AA
T15 chain: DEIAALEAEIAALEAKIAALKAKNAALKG

T16: 4H566-AA
T16 chain: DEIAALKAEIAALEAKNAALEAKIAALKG

T17: 4H605-AA
T17 chain: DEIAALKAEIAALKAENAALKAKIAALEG

T18: 4H678-AA
T18 chain: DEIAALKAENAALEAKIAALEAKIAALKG

T19: 4H717-AA
T19 chain: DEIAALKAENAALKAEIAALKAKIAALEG

T20: 4H794-AA
T20 chain: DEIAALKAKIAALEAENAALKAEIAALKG

T21: 4H881-AA
T21 chain: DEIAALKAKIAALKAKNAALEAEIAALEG

T22: 4H906-AA
T22 chain: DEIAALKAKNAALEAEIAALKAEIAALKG

T23: 4H993-AA
T23 chain: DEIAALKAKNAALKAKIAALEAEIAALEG

T24: N5-AA
T24 chain: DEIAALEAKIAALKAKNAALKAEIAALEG

T25: N6-AA
T25 chain: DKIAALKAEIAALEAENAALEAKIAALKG


What was measured:
Assay in all cases: two-hybrid library CCmax;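 also: natural log of median RNA to DNA barcode read ratio; higher means stronger binding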
4H2883-AA = target: T1, 4H2883-AA
4H2944-AA = target: T2, 4H2944-AA; details: mean of both orientations
4H2949-AA = target: T3, 4H2949-AA; details: mean of both orientations
4H3112-AA = target: T4, 4H3112-AA; details: mean of both orientations
4H317-AA = target: T5, 4H317-AA; details: mean of both orientations
4H3343-AA = target: T6, 4H3343-AA; details: mean of both orientations
4H342-AA = target: T7, 4H342-AA; details: mean of both orientations
4H3427-AA = target: T8, 4H3427-AA; details: mean of both orientations
4H3606-AA = target: T9, 4H3606-AA; details: mean of both orientations
4H3627-AA = target: T10, 4H3627-AA; details: mean of both orientations
4H3655-AA = target: T11, 4H3655-AA; details: mean of both orientations
4H3844-AA = target: T12, 4H3844-AA; details: mean of both orientations
4H429-AA = target: T13, 4H429-AA; details: mean of both orientations
4H454-AA = target: T14, 4H454-AA; details: mean of both orientations
4H48-AA = target: T15, 4H48-AA
4H566-AA = target: T16, 4H566-AA; details: mean of both orientations
4H605-AA = target: T17, 4H605-AA; details: mean of both orientations
4H678-AA = target: T18, 4H678-AA; details: mean of both orientations
4H717-AA = target: T19, 4H717-AA; details: mean of both orientations
4H794-AA = target: T20, 4H794-AA; details: mean of both orientations
4H881-AA = target: T21, 4H881-AA; details: mean of both orientations
4H906-AA = target: T22, 4H906-AA; details: mean of both orientations
4H993-AA = target: T23, 4H993-AA; details: mean of both orientations
N5-AA = target: T24, N5-AA
N6-AA = target: T25, N6-AA; details: mean of both orientations

| interaction score (4H566-AA) | interaction score (4H605-AA) | interaction score (4H678-AA) | interaction score (4H717-AA) | interaction score (4H794-AA) | interaction score (4H881-AA) | interaction score (4H906-AA) | interaction score (4H993-AA) | interaction score (N5-AA; mean of both orientations) | interaction score (N6-AA) | Binder | further results |
| --- | --- | --- | --- | --- | --- | --- | --- | --- | --- | --- | --- |
| 0.102 | -1.31 | 0.155 | -1.74 | -1.54 | -0.297 | -1.52 | -0.35 | 0.696 | 1.03 | DKIAALKAKIAALKAEIAALEAENAALEG [4H2883-AA] | interaction score (4H2883-AA): 1.92; interaction score (4H2944-AA): 0.034; interaction score (4H2949-AA): 0.237; interaction score (4H3112-AA): 1.39; interaction score (4H317-AA): -0.269; interaction score (4H3343-AA): -0.771; interaction score (4H342-AA): -0.29; interaction score (4H3427-AA): -0.335; interaction score (4H3606-AA): 0.716; interaction score (4H3627-AA): -0.102; interaction score (4H3655-AA): 0.159; interaction score (4H3844-AA): 0.741; interaction score (4H429-AA): -0.571; interaction score (4H454-AA): -0.344; interaction score (4H48-AA; mean of both orientations): 2.1 |
| – | – | – | – | – | – | – | – | – | 2.28 | DEIAALEAKIAALKAKNAALKAEIAALEG [N5-AA] | interaction score (N5-AA): -0.624 |
| -0.519 | -1.62 | -0.779 | -1.37 | -1.49 | 0.161 | -1.25 | 0.666 | 0.994 | 1.34 | DEIAALEAEIAALEAKIAALKAKNAALKG [4H48-AA] | interaction score (4H48-AA): 1.11 |
